Reference: patent US20160053277A1, “Compositions Having Dicamba Decarboxylase Activity and Methods of Use” (PIONEER HI-BRED INTERNATIONAL, INC., priority 2013, published 2016)

B1: 48 (protein, listed as Amycolatopsis mediterranei)
chain: MASMKLYGLEEHFVTADVIEAWRRRDPGLAEPMMKWAVASDITPALLDVDGGRIAAMDDAGIDTTVLSLTTPGLQNLDAAEAVALQAPTNDLIAAAVRRHPGRFQGFATLATSAPAAAADELRRAVTELGLNGALVNANSRGRALDAPGFWDIYEAAEDLRAPVYLHPGVPVPAVTEAYYRGFGEPVNSMLATGAFGWHYDAGLTILRMIVAGVFDRFPGLQVILGHWGEVVLFYLDRVAAMDKLTALRRPIAEYFRSNIFITPGGISSHKYLRWSLETVGVERIMYASDYPFNTERAGSARRFLDTAPVDEAGRERIAYRNWEELIAGIRR
B2: 46 (protein, listed as Rhodococcus opacus)
chain: MARIITLEEHYLDPAIAAASAPLARELSPDFAAAYDPASGLSYTPSAQVLQDLGQRRIADMDTHGISMQVLSCLTTQQVPADVAPDLVRAANDTAAAAVRAHPDRFAAFAALPTTAPDAAATELARCIDDLGFVGTMINGRTDGEFLDAPRFDPILATAAARNVPIYLHPAVPPRATSDSNYAGLAPLVTARLQTSAWGWHQETAVHFLHLVLSGVLDRYPNLQFILGHWGEMIPFYLDRLDEALPQAVTNLDRTISDYVRENVYITPSGMFNQAQLQYCVETLGVDRILYSVDYPFIGNDGAVSFLDEANLPDEAKHQIAHQNTEKLLGL
B3: 50 (protein, listed as Streptomyces sp.)
chain: MARIVTLEEHWTDPAVTAAGMPNLLDHVPGYAAAFDPDTGMPYPRHPELLEDLGAARIADMDRHGITTQVLSLVNTFLPADVAPRLTAAANDAMAAAVEAFPGRFAAFATLPTAVPGAAADELRRCVGELGFVGTMIMGRTDGEFLDQPRFDPILRAASDLSVPVYLHPAPPPVAVSEASYAGGLSPAVSAAFRLAAWGWHQETAVHLLHLVLAGVLDRYPGLQFVLGHWGEFIPFYLDRLDESMPRRMTGLDRTFREYFRDNVFITPSGMFSQAQLRYCADTVGTDRIIHSVDFPMLGNEGAVSFLTDSHLSREDQEKIAHGNADALLGLG
B4: 49 (protein, listed as Streptomyces sp.)
chain: MAKIIALEEHFSDPAVAKAGAARARALSPGFAASYSPASGLPYSPSPEVLENLAEKRLADMDAGGITMQVLSGLGAQTVPADVAPALVAGSNDKAAAAVRAHPDRFAAFAALPTATPEAAVAELDRSVNELGFVGTLIMGRTEGEFLDAPRFEPILARAAALKVPVFLHPGVPPREITDSNYAAGLPTGIGTRLQTAAWGWHQETAVHFLHLVHSGVLDRYPDLQFILGHWGEMIPFYLDRVDEALPQRATGLDRSFHEYFRENVYLAPSGMWSQAQLRFCLETVPLERIVFAVDYPFIGNEGAVPFLEKAELPQADKRKIAHENAERLLGL
B5: 47 (protein, listed as Serratia odorifera)
chain: MAKIICLEEHTLDKALVMASMPAALAQAPFLSDWGKTITDGNLPDRSRPQIEKNDLINVKGADIGRGRLDDMDEAGITMQVLSVGGFPHLISAAEGVDLNRAANDRLANAVNAHPDRFAAFATLPWAQPDAAEKELERAVKELGFKGALLNGRPSIHFLDHPDYDGLLARFNALGVPLYLHPGLPVRSVQQAYYSGFSDEVTARLSMFGWGWHHEAGIHLLRLILSGAFDKYPNLQVISGHWGEMLPFWLQRLDDSLPQAATGLRRTITQTFREQVYVTPSGMLTLPHFQFIYALLGAERILFSVDYPYQTLDGVKAFIQSLPVPEEAKEAIAFRNAERLFGLTS

assay: Saturation mutagenesis of SEQ ID NO:109: dicamba decarboxylation activity of point mutants (carbon dioxide released); settings: decarboxylation activity (carbon dioxide released) of point mutant compared with unmutated backbone protein; backbone SEQ ID NO: 109

Molecule | Fold Activity
B1 | 1.5
B2 | 1.1
B3 | 1.7
B4 | 2
B5 | 1.2

assay: 14C assay with IPTG-induced recombinant E. coli cells: 14CO2 captured from [14C]-carboxyl-labeled dicamba; settings: among the 108 sequences tested, recombinant E. coli cells

Molecule | decarboxylation activity of dicamba
B1 | showed decarboxylation activity of dicamba
B2 | showed decarboxylation activity of dicamba
B3 | showed decarboxylation activity of dicamba
B4 | showed decarboxylation activity of dicamba
B5 | showed decarboxylation activity of dicamba

same assay, conditions: dicamba decarboxylation activity of the protein of the given SEQ ID NO; High / Low / No

Molecule | Enzymatic Detection level
B1 | High
B2 | High
B3 | High
B4 | High
B5 | High

same assay, conditions: induced recombinant E. coli cells, [14C]-carboxyl-labeled dicamba, 14CO2 capture

Molecule | Dicamba Decarboxylase Activity
B1 | High
B2 | High
B3 | High
B4 | High
B5 | High
